# Measurements as given in IntAct's records for PubMed 20577264.
# B1: G2 and S phase-expressed protein 1 (Homo sapiens), Q9NYZ3 (parent)
# chain: MEGGGGRDEPSACRAGDVNMDDPKKEDILLLADEKFDFDLSLSSSSANEDDEVFFGPFGHKERCIAASLELNNPVPEQPPLPTSESPFAWSPLAGEKFVEVYKEAHLLALHIESSSRNQAAQAAKPEDPRSQGVERFIQESKLKINLFEKEKEMKKSPTSLKRETYYLSDSPLLGPPVGEPRLLASSPALPSSGAQARLTRAPGPPHSAHALPRESCTAHAASQAATQRKPGTKLLLPRAASVRGRSIPGAAEKPKKEIPASPSRTKIPAEKESHRDVLPDKPAPGAVNVPAAGSHLGQGKRAIPVPNKLGLKKTLLKAPGSTSNLARKSSSGPVWSGASSACTSPAVGKAKSSEFASIPANSSRPLSNISKSGRMGPAMLRPALPAGPVGASSWQAKRVDVSELAAEQLTAPPSASPTQPQTPEGGGQWLNSSCAWSESSQLNKTRSIRRRDSCLNSKTKVMPTPTNQFKIPKFSIGDSPDSSTPKLSRAQRPQSCTSVGRVTVHSTPVRRSSGPAPQSLLSAWRVSALPTPASRRCSGLPPMTPKTMPRAVGSPLCVPARRRSSEPRKNSAMRTEPTRESNRKTDSRLVDVSPDRGSPPSRVPQALNFSPEESDSTFSKSTATEVAREEAKPGGDAAPSEALLVDIKLEPLAVTPDAASQPLIDLPLIDFCDTPEAHVAVGSESRPLIDLMTNTPDMNKNVAKPSPVVGQLIDLSSPLIQLSPEADKENVDSPLLKF
# Variants of: B1
# Settings: with plk1_human PLK1, P53350
# plk1_human PLK1, P53350, sequence (P53350 whole entry): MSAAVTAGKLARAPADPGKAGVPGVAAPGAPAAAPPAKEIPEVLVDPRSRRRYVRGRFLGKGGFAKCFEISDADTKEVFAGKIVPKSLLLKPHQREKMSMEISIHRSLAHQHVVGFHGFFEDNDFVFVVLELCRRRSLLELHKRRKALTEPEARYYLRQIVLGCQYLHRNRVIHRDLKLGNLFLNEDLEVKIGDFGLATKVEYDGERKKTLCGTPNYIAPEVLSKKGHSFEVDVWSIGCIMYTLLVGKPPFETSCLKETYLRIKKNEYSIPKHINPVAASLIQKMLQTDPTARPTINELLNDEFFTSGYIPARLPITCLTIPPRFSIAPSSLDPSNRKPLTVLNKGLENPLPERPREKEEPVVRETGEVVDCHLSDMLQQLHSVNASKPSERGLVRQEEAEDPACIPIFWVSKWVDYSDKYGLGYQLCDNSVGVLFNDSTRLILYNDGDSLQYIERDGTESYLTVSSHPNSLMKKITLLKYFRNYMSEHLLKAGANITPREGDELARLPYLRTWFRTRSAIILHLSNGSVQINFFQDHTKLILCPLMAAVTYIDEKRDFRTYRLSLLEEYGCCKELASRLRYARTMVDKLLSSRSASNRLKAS
row,effect of a mutation on the interaction,Variant
1,disrupting interaction,S454A

# Variants of: B1
# Settings: with plk1_human PLK1, P53350
# Remark: another data set of the same source
row,effect of a mutation on the interaction,Variant
1,disrupting interaction,S242A
